From patent US20240409635A1 (VIBRANT PHARMA, published 2024)

How the values were obtained:
Insulin = target: T1, Insulin; assay: ELISA, insulin coated, 100 nM antibody
T1 construct: Bought reagent, coated at 5 ug/mL
Method: (§1) The experimental steps are as follows [0420] […] (4) 50 μl anti-human IgG-HRP conjugate (Sigma, AP113P, 1:8000 dilution) was added to each well; the plate was incubated for 1 h at room temperature and washed 6 times with 0.05% PBST; [0424] (5) 50 μl of TMB chromogenic solution (Biopanda, TMB-S-001) was added to each well and incubated at room temperature for 10-15 minutes for color development; [0425] (6) 50 μl of 1M HCl was added to each well to stop the color development, and the absorbance at 450 nm was measured using a microplate reader (Biotek, SYNERGY LX); Data analysis: If the ratio between the absorbance of the antibody and the absorbance of the blank control PBS is ≥3, there is too much non-specific binding.

[1] = target: T2, recombinant human CD3ε/δ protein (human, UniProt P07766 23-126; P04234 22-105); assay: BLI, antibody on AHC sensor
T2 construct: Bought heterodimer
Method: (§2) Antibodies were first captured onto an anti-human IgG Fc coated AHC biosensor (Anti-hIgG Fc, Sartorius, 18-5060). Antibodies were diluted to 5 μg/mL and 1.5 nm protein was coupled to the AHC sensor surface in 0.02% PBST.
(§3) After the sensor captures the antibodies, it is used to bind and dissociate with different concentrations of analytes to obtain the KD value of the interaction. The experimental parameters are as follows: Baseline1: 60 s, Loading: 240 s, Baseline2: 180 s, Association: 240 s, Dissociation: 600 s, High sensitivity kinetics: 2 Hz. Kinetic constants were derived based on the rate equation for 1:1 Langmuir binding to obtain equilibrium dissociation constants (KD). The Data Analysis HT 12 software (Sartorius, 50-5029) was used to simultaneously fit binding and dissociation curves to calculate Kₒₙ and Koff. The affinity KD was calculated based on the below formula: KD=Koff/Kₒₙ.

[2] = target: T3, recombinant human EGFR protein (human, UniProt P00533 25-645); assay: BLI, antibody on AHC sensor
T3 construct: Bought
Method: as §2, §3

[3] = target: T4, keyhole limpet haemocyanin; assay: ELISA, KLH coated, 100 nM antibody
T4 construct: Bought reagent, coated at 5 ug/mL; also called KLH
Method: as §1

T2 sequence (P07766 23-126, stated change not applied, chain 1 of 2): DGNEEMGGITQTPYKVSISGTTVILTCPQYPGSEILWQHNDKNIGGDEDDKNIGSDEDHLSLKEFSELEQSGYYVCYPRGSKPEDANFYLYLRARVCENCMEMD
T2 sequence (P04234 22-105, stated change not applied, chain 2 of 2): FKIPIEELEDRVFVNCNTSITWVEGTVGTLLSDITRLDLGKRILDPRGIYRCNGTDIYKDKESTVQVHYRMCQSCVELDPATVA

absorbance ratio to PBS blank (Insulin): 0.86
Kd [1]: 5.51 nM
koff [1]: 0.00302 s⁻¹
kon [1]: 547000 M⁻¹ s⁻¹
Kd [2]: 0.645 nM
koff [2]: 0.000401 s⁻¹
kon [2]: 622000 M⁻¹ s⁻¹
absorbance ratio to PBS blank [3]: 0.5
B1: EGFR-BsAb bispecific control antibody (TA1-Fab anti-CD3 x EGFR VHH) (bispecific antibody, human IgG4 S228P, kappa, F234A L235A)
heavy: EVKLLESGGGLVQPKGSLKLSCAASGFTFNTYAMNWVRQAPGKGLEWVARIRSKYNNYATYYADSVKDRFTISRDDSQSILYLQMNNLKTEDTAMYYCVRHGNFGNSYVSWFAYWGQGTLVTVSSASTKGPSVFPLAPCSRSTSESTAALGCLVKDYFPEPVTVSWNSGALTSGVHTFPAVLQSSGLYSLSSVVTVPSSSLGTKTYTCNVDHKPSNTKVDKRVESKYGPPCPPCPAPEAAGGPSVFLFPPKPKDTLMISRTPEVTCVVVDVSQEDPEVQFNWYVDGVEVHNAKTKPREEQFNSTYRVVSVLTVLHQDWLNGKEYKCKVSNKGLPSSIEKTISKAKGQPREPQVYTLPPCQEEMTKNQVSLWCLVKGFYPSDIAVEWESNGQPENNYKTTPPVLDSDGSFFLYSRLTVDKSRWQEGNVFSCSVMHEALHNHYTQKSLSLSL
chain: QVQLQESGGGSVQAGGSLKLSCAASGRGFSRYAMGWFRQAPGQDREFVATISWTNSTDYADSVKGRFAISRDNAKNTAYLQMNSLKPEDTAVYYCAADKWASSTRSIDYDYWGQGIQVTVSSESKYGPPCPPCPAPEAAGGPSVFLFPPKPKDTLMISRTPEVTCVVVDVSQEDPEVQFNWYVDGVEVHNAKTKPREEQFNSTYRVVSVLTVLHQDWLNGKEYKCKVSNKGLPSSIEKTISKAKGQPREPQVCTLPPSQEEMTKNQVSLSCAVKGFYPSDIAVEWESNGQPENNYKTTPPVLDSDGSFFLVSRLTVDKSRWQEGNVFSCSVMHEALHNRFTQKSLSLSL
light: QAVVTQESALTTSPGETVTLTCRSSTGAVTTSNYANWVQEKPDHLFTGLIGGTNKRAPGVPARFSGSLIGDKAALTITGAQTEDEAIYFCALWYSNLWVFGGGTKVEIKRTVAAPSVFIFPPSDEQLKSGTASVVCLLNNFYPREAKVQWKVDNALQSGNSQESVTEQDSKDSTYSLSSTLTLSKADYEKHKVYACEVTHQGLSSPVTKSFNRGEC
notes: IgG4
